Experiment [1] has as its target RV3 F ectodomain without GCN4, Q89M + Q222I + L168P + S470V (human respirovirus 3 (HPIV3/Seattle/USA/10Q7/2010)). Briefly: SEC.
Experiment [2] has as its target stabilized RV1 preF (A44P + E170P + Q171P + S473V + A480V) (human respirovirus 1) (UniProt P12605). Description: SEC-MALS.
Experiment [3] has the same target. Description: SEC. On the technique in general: Size exclusion chromatography separates by hydrodynamic size, large species first.
Experiment [4] has as its target RV3 F ectodomain without GCN4, Q89M + Q222I + L168P + S470V + S477V (human respirovirus 3 (HPIV3/Seattle/USA/10Q7/2010)). Description: SEC.
Experiment [5] deals with RV3 F ectodomain without GCN4, Q89M + Q222I + L168P + S477V (human respirovirus 3 (HPIV3/Seattle/USA/10Q7/2010)). Description: SEC.
For experiment [6], the target named is stabilized RV1 preF with K339P (A44P + E170P + Q171P + K339P + S473V + A480V) (human respirovirus 1) (UniProt P12605). Description: SEC.
Experiment [7] has as its target RV3 F ectodomain without GCN4, five head-stabilizing substitutions (S41P, N167P, Q89M, Q222I, L168P) (human respirovirus 3 (HPIV3/Seattle/USA/10Q7/2010)). Description: SEC-MALS; analytical SEC-MALS of F variants in supernatant.
The target of experiment [8] is RV3 F ectodomain without GCN4, five head-stabilizing substitutions plus S470V and S477V (human respirovirus 3 (HPIV3/Seattle/USA/10Q7/2010)). Described as above.

For orientation: stoichiometry N means a count of units in the complex or per binding partner. For “RV3 F ectodomain without GCN4, Q89M + Q222I + L168P + S470V (domain or fragment)”, the stoichiometry N in experiment [1] came out at 3.

On to “stabilized RV1 preF (A44P + E170P + Q171P + S473V + A480V) (from UniProt P12605 22-496) (domain or fragment)”, for which the stoichiometry N in experiment [2] and in experiment [3] was 3 throughout.

As to “RV3 F ectodomain without GCN4, Q89M + Q222I + L168P + S470V + S477V (domain or fragment)”, the stoichiometry N in experiment [4] was found to be 3.

On to “RV3 F ectodomain without GCN4, Q89M + Q222I + L168P + S477V (domain or fragment)”, for which the stoichiometry N in experiment [5] came to 3.

As for “stabilized RV1 preF with K339P (A44P + E170P + Q171P + K339P + S473V + A480V) (from UniProt P12605 22-496) (domain or fragment)”, the stoichiometry N in experiment [6] came to 3.

“RV3 F ectodomain without GCN4, five head-stabilizing substitutions (S41P, N167P, Q89M, Q222I, L168P) (domain or fragment)” yielded a stoichiometry N in experiment [7] of 3.

With “RV3 F ectodomain without GCN4, five head-stabilizing substitutions plus S470V and S477V (domain or fragment)”, in experiment [8], the stoichiometry N stood at 3.

Source of the values: paper PMC11143371.
